What was measured:
[1] = biological target: T1, human C5 (human, UniProt P01031 19-673; P01031 678-1676, Beta and alpha chains are disulfide-linked and the protein is glycosylated.); assay: Biacore T200, 37 C, kd from the dissociation phase only, dissociation at pH 7.4
T1 construct: Either in-house recombinant C5 or plasma derived C5 (CALBIOCHEM) was used; also called recombinant human C5; plasma derived human C5
Description: (§1) Anti-C5 antibodies were captured on an immobilized molecule, and then human C5 was injected. The running buffers used were ACES pH 7.4 and pH 5.8 (20 mM ACES, 150 mM NaCl, 1.2 mM CaCl₂, 0.05% Tween 20). Kinetics parameters at both pH conditions were determined by fitting the sensorgrams with 1:1 binding -RI (without bulk effect adjustment) model using Biacore T200 Evaluation software, version 2.0 (GE Healthcare).
(§2) These variants were examined for the binding against human C5.

[2] = biological target: T2, cynomolgus monkey C5 (cynomolgus monkey, limits assumed); assay: as above
T2 construct: also called recombinant cynomolgus monkey C5
T2 chain 1: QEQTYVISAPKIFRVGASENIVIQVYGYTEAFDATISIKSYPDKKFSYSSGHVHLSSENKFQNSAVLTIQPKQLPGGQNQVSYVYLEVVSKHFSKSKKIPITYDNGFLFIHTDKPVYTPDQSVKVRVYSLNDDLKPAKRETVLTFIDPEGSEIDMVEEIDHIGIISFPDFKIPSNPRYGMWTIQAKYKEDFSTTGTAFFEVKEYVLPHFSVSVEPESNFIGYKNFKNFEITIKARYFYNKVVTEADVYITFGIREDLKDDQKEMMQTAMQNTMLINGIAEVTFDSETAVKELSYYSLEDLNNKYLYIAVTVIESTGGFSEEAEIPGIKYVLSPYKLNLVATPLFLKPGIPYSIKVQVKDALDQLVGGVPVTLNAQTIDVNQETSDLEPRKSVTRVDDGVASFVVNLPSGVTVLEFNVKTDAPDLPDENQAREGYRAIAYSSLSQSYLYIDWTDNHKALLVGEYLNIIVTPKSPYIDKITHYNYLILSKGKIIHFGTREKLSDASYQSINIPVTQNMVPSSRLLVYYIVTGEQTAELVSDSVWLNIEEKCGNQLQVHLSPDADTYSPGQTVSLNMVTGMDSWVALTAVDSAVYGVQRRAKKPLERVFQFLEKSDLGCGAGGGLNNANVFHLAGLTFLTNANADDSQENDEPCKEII
T2 chain 2: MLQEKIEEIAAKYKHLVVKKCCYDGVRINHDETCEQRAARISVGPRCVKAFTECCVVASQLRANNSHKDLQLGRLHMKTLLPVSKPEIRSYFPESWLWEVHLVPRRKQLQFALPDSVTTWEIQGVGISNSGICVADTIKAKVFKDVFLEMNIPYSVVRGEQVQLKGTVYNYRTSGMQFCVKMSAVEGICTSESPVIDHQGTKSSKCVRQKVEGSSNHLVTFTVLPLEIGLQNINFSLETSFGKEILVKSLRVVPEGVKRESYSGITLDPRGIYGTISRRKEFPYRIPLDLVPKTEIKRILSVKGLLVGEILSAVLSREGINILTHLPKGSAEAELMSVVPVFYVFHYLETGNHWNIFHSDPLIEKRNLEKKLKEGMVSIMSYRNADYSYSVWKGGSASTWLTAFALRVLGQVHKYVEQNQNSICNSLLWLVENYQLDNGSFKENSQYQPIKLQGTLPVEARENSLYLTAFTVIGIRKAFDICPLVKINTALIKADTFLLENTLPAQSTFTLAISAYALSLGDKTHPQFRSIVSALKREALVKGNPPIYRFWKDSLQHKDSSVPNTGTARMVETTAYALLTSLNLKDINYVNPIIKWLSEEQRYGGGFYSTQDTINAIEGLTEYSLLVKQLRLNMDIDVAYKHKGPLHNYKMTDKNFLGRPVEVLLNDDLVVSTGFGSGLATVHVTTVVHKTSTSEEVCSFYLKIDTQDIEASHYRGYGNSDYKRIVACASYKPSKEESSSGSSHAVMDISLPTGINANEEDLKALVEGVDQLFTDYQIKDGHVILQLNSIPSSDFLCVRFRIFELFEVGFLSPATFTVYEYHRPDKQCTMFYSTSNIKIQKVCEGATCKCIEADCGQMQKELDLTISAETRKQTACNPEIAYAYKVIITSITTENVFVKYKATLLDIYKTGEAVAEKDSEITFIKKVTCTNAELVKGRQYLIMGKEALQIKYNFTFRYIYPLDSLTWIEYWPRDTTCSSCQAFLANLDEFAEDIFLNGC
Description: as §1

[3] = biological target: T1, human C5; assay: Biacore T200, captured antibody, recombinant human C5 injected, pH 7.4, 37 C, 1:1 fit
Description: as §1, §2

[4] = biological target: T2, cynomolgus monkey C5; assay: Biacore T200, captured antibody, cynomolgus monkey C5 injected, pH 7.4, 37 C, 1:1 fit
Description: as §1

[5] = biological target: T1, human C5; assay: Biacore T200, 37 C, kd from the dissociation phase only, association at pH 7.4 and dissociation at pH 5.8
Description: as §1, §2

[6] = biological target: T2, cynomolgus monkey C5; assay: as above
Description: as §1

B1: optimized 20//18 (bispecific antibody, V domains shown)
VH 1: QVQLQESGPGLVKPSETLSLTCAVSGYSISSGYYWGWIRQPPGKGLEWIGSIYHSGSTYYNKKLKSRVTISVDTSKNQFSLKLSSVTAADTAVYYCARHDPTWYHHGYFDYWGQGTLVTVSS
VH 2: QVQLVQSGAEVKKPGSSVKVSCKASGGTFSSYSISWVRQAPGQGLEWMGGIIPIFGTANYAQKFQGRVTITADESTSTAYMELSSLRSEDTAVYYCARQLYGYYELDIWGQGTLVTVSS
VL: DIQMTQSPSSLSASVGDRVTITCRASQSIHNDLAWYQQKPGKAPKLLIYEASELQSGVPSRFSGSGSGTDFTLTISSLQPEDFATYYCQHYSSYPYTFGQGTKVEIK
notes: Bispecific IgG with the common light chain 20L233
koff [1]: 0.000104 s⁻¹ | koff [2]: 0.000224 s⁻¹ | Kd [3]: 0.268 nM | koff [3]: 9.72e-05 s⁻¹ | kon [3]: 362000 M⁻¹ s⁻¹ | Kd [4]: 0.664 nM | koff [4]: 0.000236 s⁻¹ | kon [4]: 355000 M⁻¹ s⁻¹ | koff [5]: 0.0594 s⁻¹ | koff [6]: 0.107 s⁻¹

From patent US20180016327A1 (Chugai, published 2018)
